# Publication PMC9335266
# Biological target: TRIM7^B30.2 (PRY-SPRY domain of human TRIM7, residues 338-511) (human) (UniProt Q9C029)
# Assay: ITC
row,Substance,fold decrease in binding affinity against the 2C peptide
1,2C peptide with F−2 substituted by Ala,8 fold
2,2C peptide with F−2 replaced by polar serine (S−2),> 50 fold
3,2C peptide with F−2 replaced by a positively charged residue (R−2),> 50 fold
4,2C peptide with F−2 substituted by an acidic residue (D−2),8 to 15 fold
